Our source for the self-cleavage values is the RNAGym collection of RNA variant scans (doi:10.7554/elife.80360).

B1: CPEB3 Ribozyme (parent)
chain: GGGGGCCACAGCAGAAGCGUUCACGUCGCGGCCCCUGUCAGAUUCUGGUGAAUCUGCGAAUUCUGCUGU

Variants of B1 are the subject of this data set. The data set is described as follows: self-cleavage, relative activity (ratio to wild type); higher = more cleavage; co-transcriptional.
Turning to GGGGGCCACAGCAGAAGCGUUCACGUCGCGGCCCCUGUCAGAUUCUGGUGACUCUGCGAAUUCUCCUGU, the self-cleavage was 0.582.

On to GGGGGCCACAGCAGAAGCGUUCACGUCGCGGCCCCUGUCAGAUUCUGGUGACUCUGCUAAUUCUGCUGU, for which the self-cleavage is 0.977.

For the variant GGGGGCCACAGCAGAAGCGUUCACGUCGCGGCCCCUGUCAGAUUCUGGUGUAUCUGCGAAAUCUGCUGU, the self-cleavage stood at 0.932.

As for GGGGGCCACAGCAGAAGCGUUCACGUCGCGGCCCCUGUCAGAUUCUGGUGUAUCUGCGAAGUCUGCUGU, the self-cleavage was 0.772.

As for GGGGGCCACAGCAGAAGCGUUCACGUCGCGGCCCCUGUCAGAUUCUGGUGACUCUGGGAAUUCUGCUGU, the self-cleavage amounted to 0.26.

Consider GGGGGCCACAGCAGAAGCGUUCACGUCGCGGCCCCUGUCAGAUUCUGGUGUAUCUGCUAAUUCUGCUGU, for which the self-cleavage turned out to be 0.954.

Turning to GGGGGCCACAGCAGAAGCGUUCACGUCGCGGCCCCUGUCAGAUUCUGGUGUAUCUGCGAAUUCUACUGU, the self-cleavage came out at 0.889.

For the variant GGGGGCCACAGCAGAAGCGUUCACGUCGCGGCCCCUGUCAGAUUCUGGUGUAUCUGCGAAUUCUUCUGU, the self-cleavage came to 0.765.

For the variant GGGGGCCACAGCAGAAGCGUUCACGUCGCGGCCCCUGUCAGAUUCUGGUGACUCUGCGGAUUCUGCUGU, the self-cleavage worked out at 0.985.

Consider GGGGGCCACAGCAGAAGCGUUCACGUCGCGGCCCCUGUCAGAUUCUGGUGACUCUGCGCAUUCUGCUGU, for which the self-cleavage is 0.527.

Consider GGGGGCCACAGCAGAAGCGUUCACGUCGCGGCCCCUGUCAGAUUCUGGUGACUCUGCGAAAUCUGCUGU, for which the self-cleavage was determined as 0.893.

Consider GGGGGCCACAGCAGAAGCGUUCACGUCGCGGCCCCUGUCAGAUUCUGGUGUGUCUGCGAAUUCUGCUGU, for which the self-cleavage was 0.982.

In the case of GGGGGCCACAGCAGAAGCGUUCACGUCGCGGCCCCUGUCAGAUUCUGGUGUCUCUGCGAAUUCUGCUGU, the self-cleavage stood at 0.969.

Consider GGGGGCCACAGCAGAAGCGUUCACGUCGCGGCCCCUGUCAGAUUCUGGUGGAUCUGCGAAUUCUGCUGA, for which the self-cleavage turned out to be 0.995.

For the variant GGGGGCCACAGCAGAAGCGUUCACGUCGCGGCCCCUGUCAGAUUCUGGUGGAUCUGCGAAUUCUGCUGG, the self-cleavage was determined as 1.03.

GGGGGCCACAGCAGAAGCGUUCACGUCGCGGCCCCUGUCAGAUUCUGGUGACCCUGCGAAUUCUGCUGU: the self-cleavage amounted to 0.806.

In the case of GGGGGCCACAGCAGAAGCGUUCACGUCGCGGCCCCUGUCAGAUUCUGGUGACACUGCGAAUUCUGCUGU, the self-cleavage was 0.936.

Take GGGGGCCACAGCAGAAGCGUUCACGUCGCGGCCCCUGUCAGAUUCUGGUGUAUCUGCGAAUUCUGCUGU: the self-cleavage turned out to be 0.994.

As for GGGGGCCACAGCAGAAGCGUUCACGUCGCGGCCCCUGUCAGAUUCUGGUGUAUCAGCGAAUUCUGCUGU, the self-cleavage was found to be 0.696.

For the variant GGGGGCCACAGCAGAAGCGUUCACGUCGCGGCCCCUGUCAGAUUCUGGUGUAUCCGCGAAUUCUGCUGU, the self-cleavage worked out at 0.561.

As to GGGGGCCACAGCAGAAGCGUUCACGUCGCGGCCCCUGUCAGAUUCUGGUGACUCUGCGAAUUCUGCUGU, the self-cleavage was 0.993.

GGGGGCCACAGCAGAAGCGUUCACGUCGCGGCCCCUGUCAGAUUCUGGUGGAUCUGCGAAUUCGGCUGU: the self-cleavage amounted to 0.917.

GGGGGCCACAGCAGAAGCGUUCACGUCGCGGCCCCUGUCAGAUUCUGGUGGAUCUGCGAAUUCAGCUGU: the self-cleavage worked out at 0.991.

For the variant GGGGGCCACAGCAGAAGCGUUCACGUCGCGGCCCCUGUCAGAUUCUGGUGGAUCUGCGAAUUCCGCUGU, the self-cleavage was 0.949.

In the case of GGGGGCCACAGCAGAAGCGUUCACGUCGCGGCCCCUGUCAGAUUCUGGUGUAUGUGCGAAUUCUGCUGU, the self-cleavage amounted to 0.677.

On to GGGGGCCACAGCAGAAGCGUUCACGUCGCGGCCCCUGUCAGAUUCUGGUGUAUUUGCGAAUUCUGCUGU, for which the self-cleavage came out at 0.932.

For the variant GGGGGCCACAGCAGAAGCGUUCACGUCGCGGCCCCUGUCAGAUUCUGGUGACUCUUCGAAUUCUGCUGU, the self-cleavage was determined as 0.741.

In the case of GGGGGCCACAGCAGAAGCGUUCACGUCGCGGCCCCUGUCAGAUUCUGGUGACUCUCCGAAUUCUGCUGU, the self-cleavage stood at 0.536.

Regarding GGGGGCCACAGCAGAAGCGUUCACGUCGCGGCCCCUGUCAGAUUCUGGUGUAUCUGCGAAUUCUGUUGU, the self-cleavage amounted to 0.981.

In the case of GGGGGCCACAGCAGAAGCGUUCACGUCGCGGCCCCUGUCAGAUUCUGGUGUAUCUGCGAAUUCUGAUGU, the self-cleavage was determined as 0.706.

As to GGGGGCCACAGCAGAAGCGUUCACGUCGCGGCCCCUGUCAGAUUCUGGUGUAUCUGCGAAUUCUGGUGU, the self-cleavage turned out to be 0.752.

GGGGGCCACAGCAGAAGCGUUCACGUCGCGGCCCCUGUCAGAUUCUGGUGUAGCUGCGAAUUCUGCUGU: the self-cleavage turned out to be 0.825.

For GGGGGCCACAGCAGAAGCGUUCACGUCGCGGCCCCUGUCAGAUUCUGGUGUACCUGCGAAUUCUGCUGU, the self-cleavage came to 0.863.

In the case of GGGGGCCACAGCAGAAGCGUUCACGUCGCGGCCCCUGUCAGAUUCUGGUGUAUCUGCGAAUUCUGCUUU, the self-cleavage stood at 1.01.

For GGGGGCCACAGCAGAAGCGUUCACGUCGCGGCCCCUGUCAGAUUCUGGUGUAUCUGCGAAUUCUGCUCU, the self-cleavage amounted to 1.

For GGGGGCCACAGCAGAAGCGUUCACGUCGCGGCCCCUGUCAGAUUCUGGUGUAUCUGCGAAUUCUGCUAU, the self-cleavage came to 0.999.

In the case of GGGGGCCACAGCAGAAGCGUUCACGUCGCGGCCCCUGUCAGAUUCUGGUGUAUCUGCGAAUCCUGCUGU, the self-cleavage came to 0.892.

On to GGGGGCCACAGCAGAAGCGUUCACGUCGCGGCCCCUGUCAGAUUCUGGUGUAUCUGCGAAUGCUGCUGU, for which the self-cleavage was 0.868.

Turning to GGGGGCCACAGCAGAAGCGUUCACGUCGCGGCCCCUGUCAGAUUCUGGUGUAUCUGCGAAUACUGCUGU, the self-cleavage turned out to be 0.931.
